Test results reported in the supplement of paper PMC12042874.
± gives the uncertainty stated by the source.

assay: amyloid nucleation score (Sup35N fusion, yeast selection) (log enrichment); library NNK2; higher = more nucleation; inactive = no reads after selection
Summary of the method: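 The nucleation score is the DiMSum log enrichment of output over input reads, centred on the mode score of non-aggregating sequences. Only sequences with 100 or more input reads were scored, using Illumina sequencing of input and output plasmid inserts. Psi-negative yeast expressing Sup35N fused to peptides of 20 random codons were induced 24 hours with 100 μM copper sulfate and grown 7 days at 30°C on medium lacking adenine and uracil.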

Substance	amyloid nucleation score
VCSPIG	0.063 ± 0.45
VCYLLFFKRSSYKFSINHYC	inactive
VDCCSFSLWVVW	3.98 ± 0.093
VDETNAKL	0.785 ± 0.3
VDFFVFHLVTDSIMSYAHCM	0.633 ± 0.66
VDFRFMMHPSEEWMSNHLPR	1.14 ± 0.24
VDNYEQLTMKNEHETNT	-0.902 ± 0.45
VDRIESVSYLYSHDYNESGP	-0.212 ± 0.53
VDSPKREVNMCVWLLRRKQR	0.21 ± 0.34
VDYASGGARGFGMVLRAFLE	0.132 ± 0.42
VDYGQRAPTCITSHYHLNRC	0.227 ± 1.1
VDYTVFGGPTQRIGER	0.073 ± 0.3
VELSHFCTGRNSYSRRWISM	0.422 ± 0.65
VEVKNRYRVRKLLCGLLRIR	0.799 ± 0.74
VEWKRRNRVRVSRCELWFCF	3.93 ± 0.087
VFARWFYAADGYIARLHVHT	0.133 ± 0.5
VFAWLIVGIWACLFGARIFW	-0.291 ± 0.4
VFFRLMKPNFGLP	0.199 ± 1.1
VFFSESERYSGVKLGAVEDT	0.189 ± 0.49
VFGSYCGSVPRAAKFAMT	inactive
VFIFLGLPLFPMITSIDLGY	2.28 ± 0.13
VFMCVGFLLYHMNSELGPRG	2.88 ± 0.087

Substance	amyloid nucleation score
VFNFVSFRFDDTVD	6.987 ± 0.04
VFRDLSIERFIRSYVNCDRG	inactive
VFSDWMNCRYLMLRVCRVPR	0.629 ± 0.56
VFTILSCWGPYRCVVTRALL	inactive
VFTISESHLCWQYHLQEFT	4.76 ± 0.068
VFVMKMPWQSLISNLIFTSM	1.23 ± 0.2
VFVWECGAIQSLLISYMNDM	-0.784 ± 0.53
VGDVGMFFLSR	-0.668 ± 0.34
VGFLYACYFRGTAVNETGYT	1.15 ± 0.13
VGGQNGCCWVVLNTSVPNSS	6.645 ± 0.052
VGGWGWGHCPQRRQHVSLPV	0.825 ± 0.53
VGLCSPWKHALFD	3.33 ± 0.073
VGNIGSSTC	-0.159 ± 0.45
VGRIEGHFYRSDCRQTYLYQ	-0.785 ± 0.74
VGRTVMKWACIVE	4.878 ± 0.034
VGSFGLMKTYGVYCDNLLGR	inactive
VGTAKYYFKGCLGTPRSNNL	inactive
VHAVGHNSIGTRIRWVNGAA	0.504 ± 0.33
VHCDYVIELGPGWWVRNWGS	0.42 ± 0.54
VHGDMVFVCLTRCYRMF	5.37 ± 0.065
VHKYSSGMDYRSVVNLETLG	0.192 ± 1
VHLSLGGNIGLDGLQMVGVL	inactive

Substance	amyloid nucleation score
VHMVPHCATW	1.01 ± 0.38
VHNQGFLFL	-0.07 ± 0.76
VHSSVRQMSDY	0.168 ± 0.4
VHVYVGQKWSGGVLSLACYK	1.09 ± 0.35
VHYMHLSRLLKLHAEPLAFW	-0.02 ± 0.55
VICLTIYRIDECLVCLLYVA	-0.405 ± 0.33
VIHAFIMYSFGTKDV	0.885 ± 0.32
VIKGIEGVHGEKHVVYKVIC	4.19 ± 0.065
VINLRLLLIVLDGDIDYWCV	inactive
VIPYISYLDIGTLVLLAFID	-0.373 ± 1
VIRSSFFFSLELSSREEFGY	-0.817 ± 0.74
VISEGRHKSFSL	-0.105 ± 1.1
VITEADRLFHWIWKESLGEE	4.858 ± 0.035
VIVLIVLPEYAGVYSHWCWD	0.772 ± 0.81
VKFCIMSGSTKTINNYSQAR	5.57 ± 0.09
VKFFFTILVPFLIFVS	inactive
VKFTVFTQGQALIVPSGLL	5.32 ± 0.084
VKGVLPVLWMGFNKQHFINH	0.602 ± 0.81
VKIWLCATCFMGEDVQETAQ	7.055 ± 0.044
VKLPITGIERLLEARQGDQW	0.757 ± 0.39
VKPMMTFIATYGRYNHQFLS	0.861 ± 0.43
VKREVLP	0.117 ± 0.37

Substance	amyloid nucleation score
VKTQSTVWSYR	0.409 ± 0.28
VKVHSIESGGLRPWCVGASV	0.747 ± 0.3
VKVLSLVFTGMVPMQYSRYA	11.31 ± 0.049
VKVQKINGGCVGFDLTWLCN	8.863 ± 0.034
VKYYQGIGVWSKVWIMFD	0.7 ± 0.42
VLALYYINSATLILFLIFKS	-1.16 ± 1.1
VLATSFNFELGSGRTDLCRV	-0.805 ± 0.46
VLAVSLIYALTP	inactive
VLAYMQHFYRCQLCSVYVWG	4.23 ± 0.11
VLCLNFHGANVGWDLTTVYT	1.02 ± 0.17
VLEDNALVRYKDRGSSGWTV	3.15 ± 0.059
VLFCMSYKSARLEL	6.08 ± 0.07
VLFEFTC	4.33 ± 0.05
VLFSRFDSVWHVAIAVSARV	0.671 ± 0.42
VLGLKKSADYKS	-0.556 ± 0.74
VLISVIWLRGRKLSVGWKKD	0.593 ± 0.53
VLLSGLY	inactive
VLMINWMKVADFHEYFFICH	6.3 ± 0.066
VLNVNDFPNYGRRSCSTNSF	3.18 ± 0.17
